Data reported in patent publication US5670477A, “Method to enhance permeability of the blood/brain blood/nerve bariers to therapeutic agents” (Poduslo; Joseph F., priority 1995, dated 1997).
Several values for one entry are separate records, joined by “and”; a condition that tells them apart may be missing. Equal entries are not always repeated.

What was measured:
[1] = PS and Vp of the blood-nerve barrier, radioiodinated I.V. bolus; assay type: in vivo, rat (Sprague-Dawley)
Description: (§1) Free radioactive iodine was separated from the radiolabeled conjugates and agents by dialysis against 0.2M NaI.
(§2) After the final blood sample was collected, the animal was sacrificed, the brain and meninges removed, and the brain dissected into the cortex, caudateputamen (neostriatum), hippocampus, thalamus, brain stem, and cerebellum. The sciatic nerve was also rapidly removed and desheathed. Tissue was lyophilized, and dry weights were determined with a microbalance and converted to respective wet weights with wet weightry weight ratios previously determined for the desheathed rat sciatic nerve and the various brain regions. […] Statistical evaluations were performed using the t-test with significance accepted at the P<0.05 level.

[2] = plasma half-life from plasma clearance curves after I.V. bolus; settings: x ± SEM
Description: Animals and Reagents. Male Sprague-Dawley rats (24-weeks-old, 460-500 g) were obtained from Bio Lab (St. Paul) and were used to determine the PS and Vp measurements. All animals were kept for a minimum of 3 days under standard housing conditions and feeding schedules prior to the experiments. […] Insulin (Mr =6000) was obtained as humulin RU-100 from Eli Lily. […] Affinity purified human IgG was obtained from Accurate Chemicals (Mr =150,000). […] Plasma half-lives were determined from plasma clearance curves for all the proteins using the standard exponential decay equation in In Plot Scientific Graphics (Graph Pad Software).
The experimental protocol employed was based on the methods of Ohno et al. Am. […] Over the next 30 or 60 minutes, serial blood samples were collected from the brachial artery to generate a plasma washout curve.

[3] = isoelectric focusing (Coomassie blue); assay type: physicochemical; settings: Coomassie blue stain
Description: Protein samples were solubilized in SDS under reducing conditions with 2-mercaptoethanol followed by electrophoresis and staining with Coomassie blue. Pharmacia low molecular weight calibration kit was used for the protein standards. The 40% Bio-Lyte 3/10 ampholyte from Bio-Rad was used for isoelectric focusing with an acrylamide monomer concentration of 25% T and 3% C. Polymerization time was 15 minutes, with 5 minutes allowed for sample diffusion. Electrophoresis time was 45 minutes with increasing voltage to a maximum voltage of 450 volts for the last 15 minutes. IEF standards were obtained from Bio-Rad and contained nine natural proteins with the isoelectic points ranging from 4.45 to 9.6 and were visualized with Coomassie blue.

[4] = PS and Vp of the blood-brain barrier, radioiodinated I.V. bolus; assay type: in vivo, rat (Sprague-Dawley)
Description: as §1, §2

| Substance | PS of the BNB ([1]; nerve / endoneurium) | PS of the BNB ([1]; nerve, x ± SEM) | Vp (residual plasma volume) of the BNB ([1]; nerve, x ± SEM) | PS of the BBB ([4]; brain stem, x ± SEM) | Vp of the BBB ([4]; brain stem, x ± SEM) | PS of the BBB ([4]; caudate-putamen, x ± SEM) | Vp of the BBB ([4]; caudate-putamen, x ± SEM) | PS of the BBB ([4]; cerebellum, x ± SEM) | Vp of the BBB ([4]; cerebellum, x ± SEM) | PS of the BBB ([4]; cortex, x ± SEM) | Vp of the BBB ([4]; cortex, x ± SEM) | Vp of the BBB ([4]; hippocampus, x ± SEM) | PS of the BBB ([4]; thalamus, x ± SEM) | further results |
| --- | --- | --- | --- | --- | --- | --- | --- | --- | --- | --- | --- | --- | --- | --- |
| SOD: superoxide dismutase isolated from bovine erythrocytes, monomeric molecular weight 16,250 daltons | 2.24 10^-6 mL/g/sec | 1.79 ± 0.12 ml/g/sec × 10^6 and 2.24 ± 0.22 ml/g/sec × 10^6 | 1.87 ± 0.10 µL/g and 2.63 ± 0.22 µL/g | 3.19 ± 0.13 ml/g/sec × 10^6 and 3.13 ± 0.14 ml/g/sec × 10^6 | 13.77 ± 2.10 µL/g and 16.26 ± 1.22 µL/g | 1.52 ± 0.07 ml/g/sec × 10^6 and 1.78 ± 0.11 ml/g/sec × 10^6 | 5.62 ± 0.23 µL/g and 5.76 ± 0.40 µL/g | 2.94 ± 0.14 ml/g/sec × 10^6 and 2.69 ± 0.11 ml/g/sec × 10^6 | 10.20 ± 0.89 µL/g and 14.61 ± 1.09 µL/g | 1.81 ± 0.06 ml/g/sec × 10^6 and 1.80 ± 0.09 ml/g/sec × 10^6 | 6.13 ± 0.34 µL/g and 5.77 ± 0.34 µL/g | 7.94 ± 0.25 µL/g and 7.26 ± 0.77 µL/g | 2.61 ± 0.15 ml/g/sec × 10^6 and 2.71 ± 0.20 ml/g/sec × 10^6 | PS of the BNB ([1]; nerve): 1.79 ± 0.12 10^-6 mL/g/sec; PS of the BNB relative to native albumin ([1]; nerve, albumin compared from Poduslo et al. 1994): approximately 22 fold; t1 (plasma half-life) ([2]; Table 5, n = 6): 3.64 ± 0.21 min; pI (isoelectric point) [3]: 4.95; PS of the BBB ([4]; brain stem): 3.13e-06 mL/g/s; PS of the BBB relative to native albumin ([4]; brain stem): 54 fold; PS of the BBB ([4]; caudate-putamen): approximately 1.8 ×10^-6 ml/sec; PS of the BBB ([4]; cortex): approximately 1.8 ×10^-6 ml/sec; PS of the BBB relative to native albumin ([4]; cortex): 12 fold; PS of the BBB ([4]; hippocampus, x ± SEM): 1.98 ± 0.08 ml/g/sec × 10^6 and 2.15 ± 0.01 ml/g/sec × 10^6; Vp of the BBB ([4]; thalamus, x ± SEM): 9.73 ± 0.43 µL/g and 12.83 ± 1.97 µL/g |
| INS: Insulin (Mr =6000) obtained as humulin RU-100 from Eli Lily [reference compound] | 3.32e-05 mL/g/s | 33.19 ± 2.05 ml/g/sec × 10^6 | 5.05 ± 0.87 µL/g | 22.62 ± 3.35 ml/sec × 10^6 | 12.35 ± 0.99 µL/g | 16.88 ± 1.79 ml/sec × 10^6 | 6.08 ± 0.30 µL/g | 20.12 ± 2.78 ml/sec × 10^6 | 10.56 ± 0.96 µL/g | 15.78 ± 2.45 ml/sec × 10^6 | 6.44 ± 0.49 µL/g | 7.04 ± 0.68 µL/g | 18.42 ± 2.41 ml/sec × 10^6 | t1/2 (plasma half-life) ([2]; Table 4, n = 5): 1.18 ± 0.09 min |
